{
  "source": "patent US20140005241",
  "about": "(The Curators of the University of Missouri, published 2014)",
  "binders": {"B1": {"name": "60/40-mer (20ss:40ds) DNA (dsDNA)", "DNA 1": "TAGATAGCATTAGATAGCCACAGATAGCATCCTAGATAGCATTGGTGCTCGAACAGTGAC", "DNA 2": "GTCACTGTTCGAGCACCAATGCTATCTAGGATGCTATCTG"}},
  "molecular_target": "SARS-CoV nsp13 helicase (SARS coronavirus, UniProt P0C6X7 P0C6X7:5302-5902)",
  "test": "EMSA",
  "conditions": "tags: GST (baculovirus) or His6; label: 5'-Cy3; 20 nt 5' overhang, 40 bp duplex",
  "data": [
    {"binder": "B1", "values": [
      {"measurement": "binding result", "value": "binds"}
    ]}
  ]
}
